The values that follow come from publication PMC11798926 (2024).

The labels stand for the following.
B1: myc-tagged SynDIG4 (wild type) [rat] / HA-tagged μ2 AP subunit [not stated] (parent complex)
chain 1: MSSEKSGLPDSVPHTSPPPYNAPQPPAEPPIPPPQTAPSSHHHHHHHYHQSGTATLPRLGAGGLASAAAGAQRGPSSSATLPRPPHHAPPGPAAGAPPPGCATLPRMPPDPYLQETRFEGPLPPPPPAAAAPPPPAPAPTAQAPGFVVPTHAGAVGTLPLGGYVAPGYPLQLQPCTAYVPVYPVGTPYASGTPGGPGVTSTLPPPPQGPGLALLEPRRPPHDYMPIAVLTTICCFWPTGIIAIFKAVQVRTALARGDLVSAEIASREARNFSFISLAVGIAAMVLCTILTVVIIIAAQHHENYWDP
chain 2: MIGGLFIYNHKGEVLISRVYRDDIGRNAVDAFRVNVIHARQQVRSPVTNIARTSFFHVKRSNIWLAAVTKQNVNAAMVFEFLYKMCDVMAAYFGKISEENIKNNFVLIYELLDEILDFGYPQNSETGALKTFITQQGIKSQHQTKEEQSQITSQVTGQIGWRREGIKYRRNELFLDVLESVNLLMSPQGQVLSAHVSGRVVMKSYLSGMPECKFGMNDKIVIEKQGKGTADETSKSGKQSIAIDDCTFHQCVRLSKFDSERSISFIPPDGEFELMRYRTTKDIILPFRVIPLVREVGRTKLEVKVVIKSNFKPSLLAQKIEVRIPTPLNTSGVQVICMKGKAKYKASENAIVWKIKRMAGMKESQISAEIELLPTNDKKKWARPPISMNFEVPFAPSGLKVRYLKVFEPKLNYSDHDVIKWVRYIGRSGIYETRC

In the assay the parent is B1. In words: co-immunoprecipitation (IP: HA, blot: myc), quantified; HEK293T cells; second bar chart of panel D (SD4 vs AMPA); parent: 100; read off a plot.
As to chain 1 Y223A, chain 1 I226A, the percent of parent was approximately 65 %SD4.
